Experimental data reported in US20080050396A1 (SURVAC, published 2008).

Molecular target: HLA-A2 (human)
Assay: assembly assay: peptide stabilisation of HLA-A2 from T2 lysate, W6/32 immunoprecipitation

C50 [µM] | Binder
15 | YLNRHLHTWI (The end of the range is worked out from the printed start and the peptide length) [bcl180]
1 | SLALVGACI (The end of the range is worked out from the printed start and the peptide length) [bcl222]
7 | PLFDFSWLSL (The end of the range is worked out from the printed start and the peptide length) [bcl208]
2 | KTLLSLALV (The end of the range is worked out from the printed start and the peptide length) [bcl218]
1 | LLSLALVGA (The end of the range is worked out from the printed start and the peptide length) [bcl220]
3 | WLSLKTLLSL (The end of the range is worked out from the printed start and the peptide length) [bcl214]

The remaining lines, values behind:

Binder | C50 [µM]
FTARGRFATV (The end of the range is worked out from the printed start and the peptide length) [bcl124] | 1
ALSPVPPVV (The end of the range is worked out from the printed start and the peptide length) [Bcl85] | 1
ALVGACITL (The end of the range is worked out from the printed start and the peptide length) [Bcl224] | 0.7
NIALWMTEYL (The end of the range is worked out from the printed start and the peptide length) [bcl172] | 2
AAAGPALSPV (The end of the range is worked out from the printed start and the peptide length) [bcl80] | 36
